Here are results for 6 molecules from publication PMC2840211.

One experiment concerns the target RAE-1δ (Mus musculus) (UniProt Q9JI58). Particulars: cited from earlier work.
Experiment [1] deals with ectodomain of m152 (mouse cytomegalovirus m152/gp40 immunoevasin) (mouse cytomegalovirus (MCMV)). Briefly: AUC.
Experiment [2] has the same target. The experiment in a line: ITC. (In general: Isothermal titration calorimetry measures the heat released or taken up as one component is titrated into another.)
The target is the same in experiment [3]. The experiment in a line: AUC. This is another data set of the same source.

Chain of UniProt Q9JI58 (Q9JI58 29-225, stated change not applied): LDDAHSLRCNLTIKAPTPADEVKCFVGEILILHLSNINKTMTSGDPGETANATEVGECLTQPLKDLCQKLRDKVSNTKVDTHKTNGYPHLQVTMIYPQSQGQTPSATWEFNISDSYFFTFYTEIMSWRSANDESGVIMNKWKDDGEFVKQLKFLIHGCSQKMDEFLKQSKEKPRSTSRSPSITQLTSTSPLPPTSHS

What is called Kd is the concentration at which binding is half-saturated. In the case of NKG2D (from UniProt O54709), the Kd with RAE-1δ (Mus musculus) is 726 nM.

B1: ectodomain of RAE-1γ PLWY-deletion mutant (domain or fragment)
chain: GLDDAHSLRCNLTIKAPTPADEAKCLVDEILILHLSNINKTMTSGDPGETANATEVGECLTQPVNDLCQKLRDKVSNTKVDTHKTNGYPHLQVTMIYPQSQGQTPSATWEFNISDSYFFTFYTENMSWRSANDESGVIMNKWNDDGDLVQRLKYFIPECRQKIDEFLKQSKEKP
For the molecule B1, the Kd in experiment [1] was determined as 1.4 µM.

B2: ectodomain of RAE-1γ (domain or fragment)
chain: GLDDAHSLRCNLTIKAPTPADPLWYEAKCLVDEILILHLSNINKTMTSGDPGETANATEVGECLTQPVNDLCQKLRDKVSNTKVDTHKTNGYPHLQVTMIYPQSQGQTPSATWEFNISDSYFFTFYTENMSWRSANDESGVIMNKWNDDGDLVQRLKYFIPECRQKIDEFLKQSKEKP
In turn, B2 gave a Kd in experiment [1] of 1 µM.

B3: ectodomain of RAE-1β (domain or fragment)
chain: GLDDAHSLRCNLTIKDPTPADPLWYEAKCFVGEILILHLSNINKTMTSGDPGETANATEVKKCLTQPLKNLCQKLRNKVSNTKVDTHKTNGYPHLQVTMIYPQSQGRTPSATWEFNISDSYFFTFYTENMSWRSANDESGVIMNKWKDDGEFVKQLKFLIHECSQKMDEFLKQSKEKP
One may read the koff as the first-order rate constant of dissociation. Read a low koff as slow dissociation. As a reminder, the stoichiometry N is the number of molecules, sites or subunits per partner or assembly. Molecule B3 registered a Kd in experiment [2] of 2100 nM. Also, the Kd in experiment [3] was found to be 1700 nM. Also, in experiment [1], the dissociation constant Kd worked out at 4.1 µM, the koff was more than 0.001 s⁻¹ and the stoichiometry N was found to be 1.

B4: ectodomain of RAE-1β PLWY-deletion mutant (domain or fragment)
chain: GLDDAHSLRCNLTIKDPTPADEAKCFVGEILILHLSNINKTMTSGDPGETANATEVKKCLTQPLKNLCQKLRNKVSNTKVDTHKTNGYPHLQVTMIYPQSQGRTPSATWEFNISDSYFFTFYTENMSWRSANDESGVIMNKWKDDGEFVKQLKFLIHECSQKMDEFLKQSKEKP
Regarding B4, in experiment [1], the Kd came to 31 µM.

B5: ectodomain of RAE-1δ (domain or fragment)
chain: GLDDAHSLRCNLTIKAPTPADEVKCFVGEILILHLSNINKTMTSGDPGETANATEVGECLTQPLKDLCQKLRDKVSNTKVDTHKTNGYPHLQVTMIYPQSQGQTPSATWEFNISDSYFFTFYTEIMSWRSANDESGVIMNKWKDDGEFVKQLKFLIHGCSQKMDEFLKQSKEKP
Regarding B5, the Kd in experiment [1] was 34 µM.
